Test results: publication PMC3855764, “Oct4/Sox2 Binding Sites Contribute to Maintaining Hypomethylation of the Maternal Igf2/H19 Imprinting Control Region”

Key:
[1] = target: T1, Oct4 (recombinant);Sox2 (recombinant) (mouse?;mouse?, UniProt P20263;P48432 1-352;1-319, |); experiment: EMSA; several complexes, minor one likely full occupancy; 10 mM Tris pH 8.0, 2 mM MgCl (so in the source), 100 mM KCl, 1.25 mM DTT, 5% glycerol, 0.0625% BSA, 19 ug/ml dGdC, 25 fmol probe in 16 ul, 10 min room temperature; 4% PAGE 0.25X TBE; conditions: protein: recombinant;recombinant; tags: ;; copies: 1;1
T1 sequence (P20263 whole entry, chain 1 of 2): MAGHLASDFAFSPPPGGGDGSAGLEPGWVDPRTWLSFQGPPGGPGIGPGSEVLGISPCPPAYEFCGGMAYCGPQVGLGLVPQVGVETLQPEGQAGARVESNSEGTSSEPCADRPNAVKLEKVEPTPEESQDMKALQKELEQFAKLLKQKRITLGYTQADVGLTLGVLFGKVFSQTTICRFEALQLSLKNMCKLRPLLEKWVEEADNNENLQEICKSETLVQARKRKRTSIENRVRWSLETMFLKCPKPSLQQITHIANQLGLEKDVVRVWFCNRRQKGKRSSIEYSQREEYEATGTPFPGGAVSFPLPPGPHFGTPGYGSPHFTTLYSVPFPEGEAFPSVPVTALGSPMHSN
T1 sequence (P48432 whole entry, chain 2 of 2): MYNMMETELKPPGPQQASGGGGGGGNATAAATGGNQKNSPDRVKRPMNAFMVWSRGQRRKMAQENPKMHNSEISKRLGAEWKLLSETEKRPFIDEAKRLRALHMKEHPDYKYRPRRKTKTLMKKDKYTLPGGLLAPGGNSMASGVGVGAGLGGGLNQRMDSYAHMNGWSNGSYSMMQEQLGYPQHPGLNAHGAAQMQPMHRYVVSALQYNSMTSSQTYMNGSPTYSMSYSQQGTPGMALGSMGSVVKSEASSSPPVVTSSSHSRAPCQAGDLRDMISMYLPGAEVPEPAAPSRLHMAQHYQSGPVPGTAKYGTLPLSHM

[2] = target: T1, Oct4 (recombinant);Sox2 (recombinant); experiment: EMSA; cooperative ternary complex; printed as at least 50 fold; 10 mM Tris pH 8.0, 2 mM MgCl (so in the source), 100 mM KCl, 1.25 mM DTT, 5% glycerol, 0.0625% BSA, 19 ug/ml dGdC, 25 fmol probe in 16 ul, 10 min room temperature; 4% PAGE 0.25X TBE; conditions: protein: recombinant;recombinant; tags: ;; copies: 1;1
[3] = target: T1, Oct4 (recombinant);Sox2 (recombinant); experiment: EMSA; all CpGs methylated; complex not inhibited; 10 mM Tris pH 8.0, 2 mM MgCl (so in the source), 100 mM KCl, 1.25 mM DTT, 5% glycerol, 0.0625% BSA, 19 ug/ml dGdC, 25 fmol probe in 16 ul, 10 min room temperature; 4% PAGE 0.25X TBE; conditions: protein: recombinant;recombinant; tags: ;; copies: 1;1
[4] = target: T1, Oct4 (recombinant);Sox2 (recombinant); experiment: EMSA; cooperative ternary complex; versus independent binding; 10 mM Tris pH 8.0, 2 mM MgCl (so in the source), 100 mM KCl, 1.25 mM DTT, 5% glycerol, 0.0625% BSA, 19 ug/ml dGdC, 25 fmol probe in 16 ul, 10 min room temperature; 4% PAGE 0.25X TBE; conditions: protein: recombinant;recombinant; tags: ;; copies: 1;1
[5] = target: T1, Oct4 (recombinant);Sox2 (recombinant); experiment: EMSA; Oct4-Sox2-Oct4 complex (two Oct4, one Sox2); 10 mM Tris pH 8.0, 2 mM MgCl (so in the source), 100 mM KCl, 1.25 mM DTT, 5% glycerol, 0.0625% BSA, 19 ug/ml dGdC, 25 fmol probe in 16 ul, 10 min room temperature; 4% PAGE 0.25X TBE; conditions: protein: recombinant;recombinant; tags: ;; chain copies: 2;1

B1: mouse ICR Sox-OctA+B (both motifs) (dsDNA)
DNA 1: TTTCGTATTCTAATTGGGGCGTTCAGATGCTAATGATCTC
DNA 2: GAGATCATTAGCATCTGAACGCCCCAATTAGAATACGAAA
binding result [1]: binds

B2: ICR Sox-OctB (dsDNA)
DNA 1: TTGGGGCGTTCAGATGCTAATGATCTCCGGCT
DNA 2: AGCCGGAGATCATTAGCATCTGAACGCCCCAA
binding signal [2]: > 50 fold ternary complex over that expected from independent binding

B3: B* (methylated Sox-OctB) (dsDNA)
DNA 1: B2 DNA 1
DNA 2: B2 DNA 2
modifications: CpG methylated at all CpGs
binding result [3]: binds

B4: ICR Sox-OctA (dsDNA)
DNA 1: CTGGTGATTTGCGCTTTCGTATTCTAATTGGGGAC
DNA 2: GTCCCCAATTAGAATACGAAAGCGCAAATCACCAG
binding result [4]: binds

B5: A* (methylated Sox-OctA) (dsDNA)
DNA 1: B4 DNA 1
DNA 2: B4 DNA 2
modifications: CpG methylated at all CpGs
binding result [3]: binds

B6: human ICR A2 OctA/Sox-OctB, upstream Sox site mutant (dsDNA)
DNA 1: CGCGGAGATGCTAATTTAGGAGCTTGAGATGCTAAAGAGCTG
DNA 2: CAGCTCTTTAGCATCTCAAGCTCCTAAATTAGCATCTCCGCG
binding result [5]: binds
